target: T1, CrtR (CrtRHis6, His-tagged CrtR) (Corynebacterium glutamicum, UniProt Q8NSP1); experiment: EMSA, loss of CrtR binding to crtE-crtR intergenic DNA; conditions: 30-fold molar excess CrtR over DNA; 15 min pre-incubation, room temperature; 50 mM Tris-HCl pH 7.5, 50 mM KCl, 10 mM MgCl2
T1 construct: gene Cgl0627; full length, 195 aa; N-terminal His-tag (pET16b, decahistidine) kept; expressed in E. coli BL21(DE3); Ni-NTA purified; cloning primers give N-terminus MLNMQE and C-terminus WLNTE
T1 sequence (Q8NSP1 1-195): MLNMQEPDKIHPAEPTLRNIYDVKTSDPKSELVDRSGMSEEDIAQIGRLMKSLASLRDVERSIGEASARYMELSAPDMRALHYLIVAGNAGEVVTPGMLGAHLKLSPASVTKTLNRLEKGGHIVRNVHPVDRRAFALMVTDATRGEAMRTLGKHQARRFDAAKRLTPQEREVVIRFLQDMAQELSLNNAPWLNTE

Compound | lowest effective concentration [µM]
CC(C)=CCC/C(C)=C/CC/C(C)=C/CC/C(C)=C/COP(=O)(O)OP(=O)(O)O [GGPP] | 50

target: T1, CrtR (CrtRHis6, His-tagged CrtR); experiment: as above; conditions: 30-fold molar excess CrtR over DNA; 15 min pre-incubation, room temperature; 50 mM Tris-HCl pH 7.5, 50 mM KCl, 10 mM MgCl2; remark: another data set of the same source

Compound | EMSA, loss of CrtR binding to crtE-crtR intergenic DNA
CC(C)=CCOP(=O)(O)OP(=O)(O)O [DMAPP, dimethylallyl pyrophosphate] | FPP, GPP, IPP and DMAPP exerted similar effects on CrtR binding in vitro
CC(C)=CCC/C(C)=C/CC/C(C)=C/COP(=O)(O)OP(=O)(O)O [FPP, farnesyl pyrophosphate] | farnesyl pyrophosphate (FPP) and GGPP perturbed binding of His-tagged CrtR to the intergenic region
CC(C)=CCC/C(C)=C/COP(=O)(O)OP(=O)(O)O [GPP, geranyl pyrophosphate] | FPP, GPP, IPP and DMAPP exerted similar effects on CrtR binding in vitro
C=C(C)CCOP(=O)(O)OP(=O)(O)O [IPP, isopentenyl pyrophosphate] | FPP, GPP, IPP and DMAPP exerted similar effects on CrtR binding in vitro

target: T2, CrtR (His-tagged) (Corynebacterium glutamicum ATCC 13032) (UniProt Q8NSP1); experiment: EMSA; conditions: 50 mM Tris-HCl pH 7.5, 10% glycerol, 50 mM KCl, 10 mM MgCl2, 0.5 mM EDTA, 20 uL, 90 ng DNA, 30 min at room temperature; 6% DNA retardation gel
T2 sequence: T1 sequence (Q8NSP1 1-195)

Compound | binding
AAAAATAGGCCCTCATGGGATACTATAAATTTCTTGTAGGCACATTATTTTTATGGACCCAAATTCACACTTTCTGTACTTCATCAAAATAAAGCGCCATATACAACGATTGGGAATTTTTGCGAGATAACTGGCCGTGTGATACTCGA (double strand) [fragment I (motif 1 TTAA to GGCC)] | no binding
AAAAATATTAACTCATGGGATACTATAAATTTCTTGTAGGCACATTATTTTTATGGACCCAAATTCACACTTTCTGTACTTCATCAAAATAAAGCGCCATATACAACGATTGGGAATTTTTGCGAGATAACTGGCCGTGTGATACTCGA (double strand) [fragment C] | binds
AAAAATATTAACTCATGGGATACTATCCCGGGCTTGTAGGCACATTATTTTTATGGACCCAAATTCACACTTTCTGTACTTCATCAAAATAAAGCGCCATATACAACGATTGGGAATTTTTGCGAGATAACTGGCCGTGTGATACTCGA (double strand) [fragment H (motif 2 AAATTT to CCCGGG)] | binds
AACTCATGGGATACTATAAATTTCTTGTAGGCACATTATTTTTATGGACCCAAATTCACACTTTCTGTACTTCATCAAAATAAAGCGCCATATACAACGATTGGGAATTTTTGCGAGATAACTGGCCGTGTGATACTCGA (double strand) [fragment B] | no binding
ATTCAGCATAGTAATCACCTTTTTCTACAAAGTCAGATAAAGTTTATTTTTAAAAATATTAACTCATGGGATACTATAAATTTCTTGTAGGCACATTATTTTTATGGACCCAAATTCACACTTTCTGTACTTCATCAAAATAAAGCGCCATATACAACGATTGGGAATTTTTGCGAGATAACTGGCCGTGTGATACTCGA (double strand) [fragment A (full crtE-crtR intergenic region)] | binds
CACCAATACTACGTTCCACATCGCGAAGACTGGCCAACGATTTCATTAGCCGCCCAATTTGCGCAATGTCTTCTTCCGACATGCCAGAACGATCAACTAATTCACTTTTGGGATCACTAGTTTTAACGTCATAAATATTACGAAGTGTAGGTTCTGCCGGATGGATTTTATCTGGTTCCTGCATATTCAGCATAGTAATCACCTTTTTCTACAAAGTCAGATAAAGTTTATTTTT (double strand) [fragment G] | no binding
CACCAATACTACGTTCCACATCGCGAAGACTGGCCAACGATTTCATTAGCCGCCCAATTTGCGCAATGTCTTCTTCCGACATGCCAGAACGATCAACTAATTCACTTTTGGGATCACTAGTTTTAACGTCATAAATATTACGAAGTGTAGGTTCTGCCGGATGGATTTTATCTGGTTCCTGCATATTCAGCATAGTAATCACCTTTTTCTACAAAGTCAGATAAAGTTTATTTTTAAAAATATTAACTCATGGG (double strand) [fragment F] | binds
CACCAATACTACGTTCCACATCGCGAAGACTGGCCAACGATTTCATTAGCCGCCCAATTTGCGCAATGTCTTCTTCCGACATGCCAGAACGATCAACTAATTCACTTTTGGGATCACTAGTTTTAACGTCATAAATATTACGAAGTGTAGGTTCTGCCGGATGGATTTTATCTGGTTCCTGCATATTCAGCATAGTAATCACCTTTTTCTACAAAGTCAGATAAAGTTTATTTTTAAAAATATTAACTCATGGGATACTATAAATTTCTTGTAGGC (double strand) [fragment E] | binds
CATAAAAATAATGTGCCTACAAGAAATTTATAGTATCCCATGAGTTAATATTTTTAAAAATAAACTTTATCTGACTTTGTAGAAAAAGGTGATTACTATGCTGAATATGCAGGAACCAGATAAAATCCATCCGGCAGAACCTACACTTCGTAATATTTATGACGTTAAAACTAGTGATCCCAAAAGTGAATTAGTTGATCGTTCTGGCATGTCGGAAGAAGACATTGCGCAAATTGGGCGGCTAATGAAATCGTTGGCCAGTCTTCGCGATGTGGAACGTAGTATTGGTG (double strand) [fragment D] | binds
GTTCGCTACGTCCGAGTGATCACCTACAAGGACGTCAACATCGAAGAATTAGATAAGCCTGACATCATCATGCCTGAG (double strand) [cg2228 upstream fragment] | no binding
TCGAGTATCACACGGCCAGTTATCTCGCAAAAATTCCCAATCGTTGTATATGGCGCTTTATTTTGATGAAGTACAGAAAGTGTGAATTTGGGTCCATAAAAATAATGTGCCTACAAGCCCGGGATAGTATCCCATGAGGGCCTATTTTT (double strand) | no binding

From publication PMC5401885, “Isoprenoid Pyrophosphate-Dependent Transcriptional Regulation of Carotenogenesis in Corynebacterium glutamicum” (Frontiers in Microbiology, 2017)
